Experimental data reported in PMC2752207 (Biomaterials, 2009).
Bridge positions count the residues as written; N and C are the ends. Ends that are not written are not given here. * marks the point of attachment. Acryloyl = C=CC(=O)*

Key:
[1] = target: recombinant human TNF-α (human, UniProt P01375 77-233); test: uptake of the cytokine into peptide-functionalised hydrogels
[2] = target: AlexaFluor555-labeled TNFα (human, UniProt P01375 77-233, AlexaFluor 555 label (protein labeling kit; sites not stated)); test: FRET or BRET
Chain of AlexaFluor555-labeled TNFα (P01375 77-233): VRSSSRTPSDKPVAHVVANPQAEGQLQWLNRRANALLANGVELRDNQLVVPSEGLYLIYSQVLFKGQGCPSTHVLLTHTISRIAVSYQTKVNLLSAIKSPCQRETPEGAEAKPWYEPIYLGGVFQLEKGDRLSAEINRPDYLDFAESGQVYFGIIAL

Chain of recombinant human TNF-α (P01375 77-233): as above

binding result [1]	binding result [2]	Binder
binds	–	Acryloyl-YCWSQYLCY (disulfide 2-8 (inferred)) [acryl-WP9QY]
–	binds	KYCWSQYLCY (N-terminus acrylated (acrylic acid); FITC conjugated to the additional lysine; intramolecular disulfide bond) [acryl-(FITC)WP9QY]
